In patent US20200239573A1 (CRESCENDO BIOLOGICS, published 2020):

Experiments:
[1] = molecular target: T1, human PD-1 expressed on cells (CHO human PD-1 cells) (human, UniProt Q15116 21-288); assay: FMAT 1.57 epitope competition on CHO human PD-1 cells; competitor 1.57-Strep; sample kept 1 day in human serum
T1 construct: also called CHO TREX human PD-1 cell line; CHO PD-1

[2] = molecular target: T1, human PD-1 expressed on cells (CHO …); assay: FMAT epitope competition on CHO human PD-1 cells; competitor 1 nM 1.1-Strep
Experimental: (§1) For the epitope competition assay reagents were prepared in FMAT assay buffer. […] Plates were incubated for a minimum of 1.5 hours at room temperature then fluorescence measured in the FL2 (502 nm-537 nm) and FL5 (677-800 nm) channels on the Mirrorball plate reader (TTP) following excitation at 488 nm and 640 nm. Data was expressed as a % of the total binding control (i.e. % control) after subtraction of the background signal determined from the non-specific binding control wells.

[3] = molecular target: T1, human PD-1 expressed on cells (CHO …); assay: FMAT 1.57 epitope competition on CHO human PD-1 cells; competitor 1.57-Strep; sample kept 7 days in human serum
[4] = molecular target: T1, human PD-1 expressed on cells (CHO …); assay: FMAT 1.57 epitope competition on CHO human PD-1 cells; competitor 1.57-Strep; sample kept 7 days in mouse serum
Experimental: as §1
(§2) Serum stability of VH and multivalent VH constructs was assessed by measurement of their activity following incubation for 0, 1, 4 or 7 days in mouse serum (Sigma M5905).

[5] = molecular target: T2, human PD-1 on primary human CD4+ T cells (human, UniProt Q15116 21-288); assay: flow cytometry, PHA-stimulated human CD4+ T cells, donor 2
T2 sequence (Q15116 21-288): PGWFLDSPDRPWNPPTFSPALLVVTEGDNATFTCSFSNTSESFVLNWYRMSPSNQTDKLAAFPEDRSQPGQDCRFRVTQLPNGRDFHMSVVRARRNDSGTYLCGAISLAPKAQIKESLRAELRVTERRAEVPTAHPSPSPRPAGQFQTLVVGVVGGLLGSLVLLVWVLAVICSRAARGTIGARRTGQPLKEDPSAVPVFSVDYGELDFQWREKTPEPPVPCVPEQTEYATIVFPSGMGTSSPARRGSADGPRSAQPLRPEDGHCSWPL
Experimental: (§3) Binding of monovalent single domain antibodies and multivalent binding agents to T cells was measured using flow cytometry. […] T-cells were stimulated with 2.5 μg/ml PHA for 2-4 days in RPMI media supplemented with 10% FBS, 2 mM Glutamine, 1× Pen/Strep. Cells were transferred into 96 well plates (75000 per well), blocked for 10 mins with PBS/1% BSA, then incubated with serially diluted VH in staining buffer (PBS/1% BSA) for 1 hour at 4° C. Cells were washed with staining buffer by centrifugation then incubated with 10 μg/ml biotinylated Anti His antibody for 40 mins at 4° C. Cells were washed again then stained with Streptavidin Alexa Fluor-488 (10 μg/ml) and 1:5000 diluted Live Dead near IR stain (Molecular Probes cat no. L10119) for 30 mins at 4° C. After further washing cells were fixed and fluorescence measured by flow cytometry.

[6] = molecular target: T1, human PD-1 expressed on cells (CHO …); assay: FMAT 1.57 epitope competition on CHO human PD-1 cells; competitor 1.57-Strep; sample kept 1 day in mouse serum
Experimental: as §1, §2

[7] = molecular target: T1, human PD-1 expressed on cells (CHO …); assay: FMAT direct binding to CHO human PD-1 cells; column headed CHO PD-1 binding IC50 (M)
Source text: Plates were read in the FL2 (502 nm-537 nm) and FL5 (677-800 nm) channels on the TTP Mirrorball plate reader following excitation at 488 nm and 640 nm.

[8] = molecular target: T2, human PD-1 on primary human CD4+ T cells; assay: flow cytometry, PHA-stimulated human CD4+ T cells, donor 1
Experimental: as §3

[9] = molecular target: T1, human PD-1 expressed on cells (CHO …); assay: FMAT inhibition; 100 pM PD-L1-Fc on CHO human PD-1 cells
Experimental: as §1, with “All” for “For the epitope competition assay”, “reagents and serially diluted VH” for “reagents”, “2” for “a minimum of 1.5”

mouse PD-1 protein = molecular target: T3, mouse PD-1 protein (mouse, UniProt Q02242 25-167); assay: HTRF binding, 2 nM mouse PD-1
T3 construct: Detected with anti human-Fc cryptate, so probably Fc tagged; also called mouse PD-1 (R&D Systems cat no. 1021-PD)
T3 sequence (looked up): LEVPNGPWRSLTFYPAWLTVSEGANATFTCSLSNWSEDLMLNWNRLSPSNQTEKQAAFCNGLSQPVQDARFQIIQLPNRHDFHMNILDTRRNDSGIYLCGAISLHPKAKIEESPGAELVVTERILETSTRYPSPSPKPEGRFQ
Experimental: e) Species Cross Reactivity Testing Purified […] were tested for their ability to bind to human PD-1 (R&D Systems cat no. 1086-PD), cynomolgus PD-1 (Acro Biosystems cat no. PD-1-05254) and mouse PD-1 (R&D Systems cat no. 1021-PD) in an HTRF Binding assay format. All reagents and serially diluted VH were prepared in assay buffer containing PBS, 0.1% BSA and 0.4M Potassium Fluoride. Samples or assay buffer (non-specific binding) were incubated with 2 nM human/cynomolgus or mouse PD-1, 1 nM Anti human-Fc Cryptate PAb (Cisbio cat. no. 61HFCKLB) and 30 nM anti His-D2 (CisBio cat no 61HISDLA) in black 384-shallow well assay plates for a minimum of 3 hours at room temperature. Time-resolved fluorescent emission at 620 nm and 665 nm was measured following excitation at 337 nm on the BMG PHERAstar plate reader. The HTRF ratio were calculated ((665 nm emission/620 nm emission)*10000) and the data corrected for (non-specific binding) to give the specific binding signal.

[10] = molecular target: T1, human PD-1 expressed on cells (CHO …); assay: FMAT inhibition; 200 pM PD-L2 on CHO human PD-1 cells
Experimental: as §1, with “All” for “For the epitope competition assay”, “reagents and serially diluted VH” for “reagents”, “2” for “a minimum of 1.5”

[11] = molecular target: T1, human PD-1 expressed on cells (CHO …); assay: FMAT 1.57 epitope competition on CHO human PD-1 cells; competitor 1.57-Strep; sample kept 0 days in human serum; Day 0, Human column
[12] = molecular target: T2, human PD-1 on primary human CD4+ T cells; assay: flow cytometry, PHA-stimulated human CD4+ T cells, donor 3
Experimental: as §3

T1 sequence (Q15116 21-288): as the sequence (Q15116 21-288) above

IC50 [1]: 4.9 nM
IC50 [2]: 0.79 nM
IC50 [3]: 5.4 nM
IC50 [4]: 5.2 nM
EC50 [5]: 1.1 nM
IC50 [6]: 4.4 nM
EC50 [7]: 0.1 nM
EC50 [8]: 0.8 nM
IC50 [9]: 2.8 nM
binding result (mouse PD-1 protein): no binding
IC50 [10]: 4 nM
IC50 [11]: 5.7 nM
EC50 [12]: 1.2 nM
B1: Humabody® 1.92 (VHH)
VHH: EVQLVESGGGLVKPGGSLRLSCAASGFTFSDESMTWMRQAPGKGLEWVSYISSGGGVKFYADSVKGRFTISRDNAKNSLYLQMNSLRAEDTAVYYCAREAPLRLGESPHDAFDISGQGTMVTVSS
notes: human VH single domain antibody
